Source: patent US8263340B2, “Constitutively active mutants of the prolactin receptor” (Institut National de la Sante et de la Recherche Medicale …, priority 2007, dated 2012)

How the values were obtained:
WT PRLR cells = test: Effect of PRLR inhibitors on proliferation of Ba/F3 cells expressing WT PRLR; type: cell-based, murine; settings: no PRL, 1% FCS, 3 days
Protocol: Cells were starved for 6 hours in 1% FCS RPMI medium with additives (no PRL), then distributed in 96 well-plates at a density of 5×10^4 cells/well in a final volume of 100 μL. One hundred μL, of [2×] hPRL (and/or antagonist) diluted in the same medium were added after starvation period. Cell survival/proliferation was estimated after 2-3 days of hormonal stimulation by adding 10-20 μL, of WST-1 tetrazolium salt, which is metabolized by living cells ([…] et al., Endocrine, 20, 177-190, 2003). Optical density at 450 nm (OD450) was measured after 1-3 hours of colorimetric reaction using an ELISA plate reader. The experiments were routinely performed at least three times in triplicate or quadruplicate. Proliferation of stable Ba/F3 cell populations was evaluated in poor medium (1% FCS) in the presence of WT hPRL, or of the PRLR antagonist De11-9-G129R-hPRL, or of AG490, for 3 days. The results are illustrated in FIGS. 12 and 13.

mutant I76V = test: Effect of PRLR inhibitors on proliferation of Ba/F3 cells expressing mutant I76V; type: cell-based, murine; settings: 3 days
Protocol: (§1) Cells were starved for 6 hours in 1% FCS RPMI medium with additives (no PRL), then distributed in 96 well-plates at a density of 5×10^4 cells/well in a final volume of 100 μL. One hundred μL, of [2×] hPRL (and/or antagonist) diluted in the same medium were added after starvation period. Cell survival/proliferation was estimated after 2-3 days of hormonal stimulation by adding 10-20 μL, of WST-1 tetrazolium salt, which is metabolized by living cells (BERNICHTEIN et al., Endocrine, 20, 177-190, 2003). Optical density at 450 nm (OD450) was measured after 1-3 hours of colorimetric reaction using an ELISA plate reader. The experiments were routinely performed at least three times in triplicate or quadruplicate.
Proliferation of stable Ba/F3 cell populations was evaluated in poor medium (1% FCS) in the presence of WT hPRL, or of the PRLR antagonist De11-9-G129R-hPRL, or of AG490, for 3 days. The results are illustrated in FIGS. 12 and 13.

hPRL = test: Binding affinity of WT and mutated PRLR for hPRL, [125I]-hPRL competition with Scatchard analysis, stably transfected HEK 293 cell homogenates; parameters: species or system human; settings: stable HEK 293 clones, overnight at room temperature
Protocol: (§2) Binding affinities of mutated PRLR for hPRL were determined using cell homogenates of stably transfected HEK 293, following a procedure previously described (KINET et al., J Biol Chem, 274, 26033-26043, 1999). Briefly, recombinant hPRL, produced in bacteria E. coli using the pT7L expression vector, and purified as described previously (PARIS et al., Biotechnol Appl Biochem, 12, 436-449, 1990), was iodinated using the Iodogen method, and its specific activity was in the range of 4-5 μCi/μg. Binding assays were performed overnight at room temperature using 150-300 μg cell homogenate protein in the presence of 20,000-30,000 cpm [^125I]-hPRL and increasing concentrations of unlabeled hPRL (competitor). Scatchard analysis was performed to determine the binding affinity of mutated PRLR and the number of PRLR per cell in stable clones or populations.

[1] = test system: LHRE-luciferase reporter (Stat5); test: LHRE-luciferase reporter assay in HEK 293 cells expressing WT or mutated hPRLR; type: cell-based, human
Description: The human PRLR cDNA inserted into the pc/DNA3 eukaryotic vector (InVitrogen, Carlsbad, Calif.) has been generated as described previously (LOCHNAN et al, Mol Cell Endocrinol 114:91-99, 1995; GOFFIN et al, J Biol Chem 271:16573-16579, 1996). The PRLR-responsive LHRE-luciferase reporter gene carries the sequence encoding the firefly luciferase gene under the control of a 6-repeat sequence of the lactogenic hormone response element (LHRE) followed by the minimal thymidine kinase promoter (GOFFIN et al., J Biol Chem, 271, 16573-16579, 1996). LHRE is the DNA binding element of the signal transducer and activator of transcription Stat5, one of the signaling proteins activated by the PRLR once it is activated (WAKAO et al, EMBO J. 13, 2182-2191, 1994).
Cells were routinely cultured in DMEM medium supplemented with 10% FCS, 2 mM glutamine, 50 U/mL penicillin, 50 μg/mL streptomycin. Cells were co-transfected, using the lipofectamine method with two or three plasmids, one encoding the receptor of interest, one encoding the LHRE-firefly luciferase vector as a reporter of PRLR-mediated a effects, and one encoding the Renilla Luciferase which is expressed in a PRL-independent manner and serves as an internal control of transfection efficiency (DOS SANTOS et al., Nat Genet, 36, 720-724, 2004).
After trypsinization, cells were counted and aliquoted in 96-well plates at a density of 50,000 cells/100 μL/well. Plating medium contained 0.5% FCS to allow cell adhesion. Six to eighteen hours (overnight) after plating, cells were stimulated by addition to each well of 100 μL of PRL (1 μg/ml) diluted in FCS-free medium. After 24 hours of stimulation, culture medium was aspirated and cells were lyzed for at least 10 minutes in 50-100 μL of lysis buffer (Promega). Luciferase activity (only firefly luciferase for stable clones, and both firefly and renilla luciferases for transient transfections) for each experimental condition was counted in 10-20 μL of cell lysates for 10 seconds using a luminometer (Lumat LB 9501, Berthold, Nashua, N.H.). […]

Ba/F3 cells [2] = type: cell-based, murine; settings: 1% FCS; for constitutive proliferation / survival: absence of PRL
Protocol: Ba/F3 cells are a pro-B murine cell line dependent on IL-3 for growth. Cells were transfected by electroporation using 5-20 μg of plasmid encoding the WT or mutated human PRLR(CMV promoter), then the populations stably expressing the receptor was selected by several passages in G418-containing medium. Ba/F3-hPRLR cells were routinely maintained in RPMI 1640 medium supplemented with 10% heat-inactivated FCS, 2 mM glutamine, 50 U/mL penicillin, 50 μg/mL streptomycin, 700 μg/mL G-418 (for selection of stably transfected cells), and 10-100 ng/mL WT hPRL instead of IL-3 as the growth factor.
as §1

Ba/F3 cells [3] = test: Cell cycle / apoptosis of transfected Ba/F3 stable populations by FACS (propidium iodine); type: cell-based, murine; settings: minimal medium
Description: The cell cycle of transfected Ba/F cells (stable populations) was studied by FACS analysis, using propidium iodine labelling as previously described (JEAY et al., Endocrinology 142:147-156, 2001). Cells were put in minimal medium, with or without PRL for the indicated time.

mutated PRLR = test: Binding affinity of the PRLR antagonist for mutated and WT PRLR (not shown); parameters: species or system human
Protocol: as §2
Similarly, the affinity for the pure PRLR antagonist De11-9-G129R-hPRL (BERNICHTEIN et al., J Biol Chem, 278, 35988-35999, 2003) is also identical for the mutants and the receptors (not shown).

PRLR phosphorylation = test: PRLR tyrosine phosphorylation by immunoprecipitation and western blot in transfected HEK 293 cells; type: cell-based, human
Protocol: Receptor phosphorylation on tyrosine residues is the first step of PRLR activation.
Transient or stable transfected cells were starved overnight in FCS-free medium before hormonal stimulation. The next day, cells were stimulated (5-30 min at 37° C.) using various concentrations of WT hPRL as indicated. At the end of the stimulation, cells were washed twice with ice-cold saline buffer and cell pellets were kept frozen until used. Cells were solubilized in 0.5-1 ml lysis buffer (30 min under gentle rotation at 4° C.). Lysates were centrifuged for 10 min at 13,000×g, then supernatants were quantified for their protein content by Bradford assay and used for immunoprecipitation.
For immunoprecipitation studies, 0.5-1 mg of total lysate were incubated with anti-human PRLR (anti extracellular domain of the human PRLR, Zymed, clone 1A2B1), used at 1-5 μl/ml. After overnight rotation at 4° C., immune complexes were captured using 20 μl Protein A Sepharose slurry for 1 additional hour rotation at 4° C. Protein A complexes were precipitated by centrifugation, pellets were washed 3 times in lysis buffer and boiled in 15 μl reducing SDS sample buffer for 5 min at 95° C. Finally, immunoprecipitated samples were analysed using 7.5% SDS-PAGE. Electrophoretic transfer onto nitrocellulose membranes (Bio-Rad) was performed as described (LLOVERA et al., Oncogene, 19, 4695-4705, 2000). […]

Stat5 = Stat5 phosphorylation by immunoprecipitation and western blot in Ba/F3 populations; type: cell-based, murine
Protocol: Stat5 is the main PRLR signalling mediator, and a known anti-apoptotic factor in Baf cells. Its phosphorylation was analyzed by immunoprecipitation and western blot, using the protocol described in Example 3 for the analysis of PRLR phosphorylation.
Immunoprecipitation was performed with anti-STAT5 antibodies (c17, SantaCruz). The membranes were incubated with anti-PY antibody (4G10, Upstate), and when required re-incubated with anti-STAT5 (c17, SantaCruz) antibodies.
The results are illustrated by FIG. 16: (−)=no PRL, (+)=0,5 μg/ml PRL.

**Q.** What does the source list for `N#CC(=Cc1ccc(O)c(O)c1)C(=O)NCc1ccccc1` [AG490, N-Benzyl-3,4-dihydroxy-benzylidenecyanoacetamide, reference compound]?
**A.** effect on basal proliferation of WT PRLR cells (WT PRLR cells): no effect; inhibition of constitutive activation (proliferation) of mutant I76V (mutant I76V; 20 μM AG490, no PRL): partially inhibited

**Q.** For “wild-type PRLR: wild-type human prolactin receptor (isoform 1), SEQ ID NO: 1, used as control”, which Kd (hPRL) is on record?
**A.** 0.64 nM

**Q.** And the “basal activity (unstimulated cells), luciferase” value ([1]; no PRL, compared to WT receptor)?
**A.** devoid of activity

**Q.** And the “fold stimulation induced by PRL” value ([1]; stable clones, PRL 1 μg/ml, 24 hours)?
**A.** 8 fold

**Q.** And the “constitutive proliferation / survival” value (Ba/F3 cells [2])?
**A.** hardly survived

**Q.** And the apoptosis (Ba/F3 cells [3]; absence of PRL, 30 h)?
**A.** 50%

**Q.** What about the “effect of PRL on apoptosis” value (Ba/F3 cells [3]; with PRL) of the same molecule?
**A.** PRL prevents this effect

B1: De11-9-G129R-hPRL: pure PRLR antagonist, variant of human prolactin, which interferes with the mechanism of receptor activation by PRL (protein)
chain: RCQVTLRDLFDRAVVLSHYIHNLSSEMFSEFDKRYTHGRGFITKAINSCHTSSLATPEDKEQAQQMNQKDFLSLIVSILRSWNEPLYHLVTEVRGMQEAPEAILSKAVEIEEQTKRLLERMELIVSQVHPETKENEIYPVWSGLPSLQMADEESRLSAYYNLLHCLRRDSHKIDNYLKLLKCRIIHNNNC
**Q.** With B1 as the molecule, how does the “effect on basal proliferation of WT PRLR cells” value (WT PRLR cells) read?
**A.** no effect

**Q.** What about the “inhibition of constitutive activation (proliferation) of mutant I76V” value (mutant I76V; 10 μg/ml antagonist, no PRL) of the same molecule?
**A.** inhibited

**Q.** And the “affinity for mutants versus WT receptor” value (mutated PRLR)?
**A.** identical

B2: I76V: mutant human prolactin receptor wherein the Ile residue at position 76 is substituted by a Val residue (protein)
chain: QLPPGKPEIFKCRSPNKETFTCWWRPGTDGGLPTNYSLTYHREGETLMHECPDYITGGPNSCHFGKQYTSMWRTYVMMVNATNQMGSSFSDELYVDVTYIVQPDPPLELAVEVKQPEDRKPYLWIKWSPPTLIDLKTGWFTLLYEIRLKPEKAAEWEIHFAGQQTEFKILSLHPGQKYLVQVRCKPDHGYWSAWSPATFIQIPSDFTMNDTTVWISVAVLSAVICLIIVWAVALKGYSMVTCIFPPVPGPKIKGFDAHLLEKGKSEELLSALGCQDFPPTSDYEDLLVEYLEVDDSEDQHLMSVHSKEHPSQGMKPTYLDPDTDSGRGSCDSPSLLSEKCEEPQANPSTFYDPEVIEKPENPETTHTWDPQCISMEGKIPYFHAGGSKCSTWPLPQPSQHNPRSSYHNITDVCELAVGPAGAPATLLNEAGKDALKSSQTIKSREEGKATQQREVESFHSETDQDTPWLLPQEKTPFGSAKPLDYVEIHKVNKDGALSLLPKQRENSGKPKKPGTPENNKEYAKVSGVMDNNILVLVPDPHAKNVACFEESAKEAPPSLEQNQAEKALANFTATSSKCRLQLGGLDYLDPACFTHSFH
**Q.** How did the Kd (hPRL) turn out when B2 was run?
**A.** 0.44 nM

**Q.** And the fold induction ([1]; transient transfections, normalized firefly/renilla luciferase)?
**A.** 5 fold

**Q.** What about the “constitutive phosphorylation of PRLR” value (PRLR phosphorylation; absence of PRL stimulation) of the same molecule?
**A.** weaker

**Q.** What about the “effect of PRL stimulation on PRLR phosphorylation” value (PRLR phosphorylation; with PRL stimulation) of the same molecule?
**A.** increased phosphorylation

**Q.** What about the “effect of PRL on proliferation” value (Ba/F3 cells [2]; 10 or 100 ng/ml hPRL) of the same molecule?
**A.** further increased

**Q.** And the “constitutive proliferation / survival” value (Ba/F3 cells [2])?
**A.** moderate but significant constitutive proliferation

**Q.** What about the “effect of PRL stimulation on phosphorylation of Stat5” value (Stat5; 0,5 μg/ml PRL) of the same molecule?
**A.** can be increased

**Q.** And the “phosphorylation of Stat5” value (Stat5; absence of PRL stimulation)?
**A.** moderate
